Assay results taken from the supplement of paper PMC10567573.

B1: CDC25A (parent)
chain: TVAGKHQDLKYISPEIMASVLNGK

Variants of: B1
Assay: protein stability index of a GFP-peptide fusion (GPS, HEK-293T) (PSI 1-6); higher = more stable
Conditions: c terminus: a fixed tail appended
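Note: lentivirally expressed fusions sorted by FACS into six bins by GFP to DsRed ratio, PSI derived from sequencing read proportions per bin multiplied by bin number.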

Protein stability index of substitutions, site by site:
V20: W 2.84, G 3.79, L 2.84, R 3.99, T 3.75, H 3.33, P 3.64, S 4.11, K 3.73, C 2.93, D 4.35, I 2.63, F 2.92, A 3.56, M 3.56
K24: R 3.06, W 1.93, P 3.26, Y 2.01, F 1.89, L 2.01, E 3.73, S 2.94, A 2.67, M 2.36, G 2.87, I 2.01, N 3.21, T 2.69, C 2.42, D 3.61, H 2.44, Q 3.4, V 2.09
I16: C 3.44, W 2.87, V 3.47, Y 2.85, Q 4.28, S 3.78, E 4.29, D 4.25, M 3.62, R 3.73, L 2.86, G 3.84, H 3.97, F 2.87, P 4.45, K 3.42, N 3.8, A 3.66, T 3.62
M17: C 3.42, V 3.42, E 4.21, S 4.12, A 3.96, N 3.74, F 2.78, I 2.71, T 3.22, Y 3.1, H 3.8, G 3.88, L 2.64, Q 3.73, P 4, D 3.89, W 2.46, K 3.96, R 3.87
S19: W 1.94, Y 1.88, V 2.13, L 1.86, P 3.65, A 3.1, R 3.29, D 3.41, T 2.83, G 2.77, N 3.61, M 2.38, E 4.06, C 2.46, K 3.24, I 2.16, H 2.88, F 2.01, Q 3.28
G23: W 2.33, C 2.63, V 2.61, M 2.46, A 2.96, I 2.48, Q 3.4, F 2.37, R 3.37, Y 2.35, S 3.01, D 3.57, E 3.69, H 2.9, K 3.36, N 3.9, T 3.25, L 2.63, P 2.56
A18: Q 3.34, I 2.13, S 3.3, C 3.11, G 3.44, F 2.73, M 2.33, K 3.16, P 3.6, R 2.71, Y 2.65, D 3.45, H 3.08, T 3.74, N 3.1, E 4, W 1.97, L 2.53, V 2.54
E15: G 3.08, S 3.09, F 2.07, D 3.42, W 1.76, N 2.95, M 2.19, T 2.63, V 1.89, A 2.77, I 1.78, K 2.68, Y 1.84, L 1.99, P 3.05, C 2.25, R 2.64, Q 2.82, H 2.74
N22: Y 2.41, S 3.27, T 2.88, I 2.77, M 2.66, Q 3.37, V 2.55, A 2.92, F 1.93, P 3.4, L 2.56, G 2.84, H 2.96, K 2.94, C 2.53, W 1.95, R 2.71, D 3.54, E 3.92
